According to patent US20220002426A1 (BIOINVENT INTERNATIONAL, published 2022):

T1: wild type, full length murine TNFR2 (on cells) (mouse, UniProt P25119 23-474)
T1 construct: whole, on cells; also called mTNFR2; mouse TNFR2
T1 sequence (looked up): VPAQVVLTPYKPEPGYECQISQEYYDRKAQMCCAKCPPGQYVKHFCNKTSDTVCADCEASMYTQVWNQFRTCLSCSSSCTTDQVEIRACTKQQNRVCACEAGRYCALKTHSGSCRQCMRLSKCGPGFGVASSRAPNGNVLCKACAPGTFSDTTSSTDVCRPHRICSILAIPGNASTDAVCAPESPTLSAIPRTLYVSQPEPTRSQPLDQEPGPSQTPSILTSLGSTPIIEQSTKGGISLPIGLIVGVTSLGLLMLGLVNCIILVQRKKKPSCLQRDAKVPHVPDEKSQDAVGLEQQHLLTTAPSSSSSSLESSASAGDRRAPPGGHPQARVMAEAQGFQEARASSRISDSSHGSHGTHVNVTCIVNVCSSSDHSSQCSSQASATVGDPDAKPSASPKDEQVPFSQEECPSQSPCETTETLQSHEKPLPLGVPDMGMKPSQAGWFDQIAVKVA

T2: recombinant mouse TNFR2-Fc protein (Sino Biological) (mouse, UniProt P25119 23-258, limits assumed)
T2 construct: bought; also called mTNFR2 protein; mTNFR2; not shown: Fc part of the bought fusion protein; not described
T2 sequence (looked up): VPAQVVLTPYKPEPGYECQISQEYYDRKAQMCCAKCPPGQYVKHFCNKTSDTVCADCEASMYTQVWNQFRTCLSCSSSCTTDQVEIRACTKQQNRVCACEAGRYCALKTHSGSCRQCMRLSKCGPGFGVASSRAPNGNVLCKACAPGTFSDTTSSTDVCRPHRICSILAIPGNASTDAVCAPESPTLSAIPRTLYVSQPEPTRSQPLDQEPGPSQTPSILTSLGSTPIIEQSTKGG

T3: mTNFRII (Sinobioologicals Cat No. 50128 M08H) (mouse, UniProt P25119 23-258, limits assumed)
T3 construct: bought
T3 sequence (looked up): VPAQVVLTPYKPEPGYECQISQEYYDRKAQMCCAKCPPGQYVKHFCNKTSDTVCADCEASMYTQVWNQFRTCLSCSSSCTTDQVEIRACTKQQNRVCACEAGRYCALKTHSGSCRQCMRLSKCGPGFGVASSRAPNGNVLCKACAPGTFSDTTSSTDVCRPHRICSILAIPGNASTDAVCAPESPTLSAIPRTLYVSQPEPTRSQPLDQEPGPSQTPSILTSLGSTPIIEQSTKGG

T4: wild type, full length human TNFR2 (on cells) (human, UniProt P20333 23-461)
T4 construct: whole, on cells; also called hTNFR2; TNFRII
T4 sequence (looked up): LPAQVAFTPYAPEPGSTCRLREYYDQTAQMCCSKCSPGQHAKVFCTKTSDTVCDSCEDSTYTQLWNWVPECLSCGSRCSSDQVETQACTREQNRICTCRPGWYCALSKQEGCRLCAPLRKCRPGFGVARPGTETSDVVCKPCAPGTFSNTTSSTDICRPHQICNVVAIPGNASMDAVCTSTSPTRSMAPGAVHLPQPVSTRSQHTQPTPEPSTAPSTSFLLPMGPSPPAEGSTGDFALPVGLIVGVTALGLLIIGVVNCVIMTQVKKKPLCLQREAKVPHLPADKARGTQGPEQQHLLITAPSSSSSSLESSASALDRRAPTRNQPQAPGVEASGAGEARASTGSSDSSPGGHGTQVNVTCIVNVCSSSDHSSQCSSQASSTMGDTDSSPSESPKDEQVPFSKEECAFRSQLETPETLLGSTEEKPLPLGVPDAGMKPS

T5: Cynomolgus TNFR2 (on cynomolgus CD4+ T cells) (cynomolgus monkey (Macaca fascicularis), UniProt A0A2K5VET2 132-571)
T5 construct: whole, on cells; also called cmTNFR2; cynoTNFR2
T5 sequence: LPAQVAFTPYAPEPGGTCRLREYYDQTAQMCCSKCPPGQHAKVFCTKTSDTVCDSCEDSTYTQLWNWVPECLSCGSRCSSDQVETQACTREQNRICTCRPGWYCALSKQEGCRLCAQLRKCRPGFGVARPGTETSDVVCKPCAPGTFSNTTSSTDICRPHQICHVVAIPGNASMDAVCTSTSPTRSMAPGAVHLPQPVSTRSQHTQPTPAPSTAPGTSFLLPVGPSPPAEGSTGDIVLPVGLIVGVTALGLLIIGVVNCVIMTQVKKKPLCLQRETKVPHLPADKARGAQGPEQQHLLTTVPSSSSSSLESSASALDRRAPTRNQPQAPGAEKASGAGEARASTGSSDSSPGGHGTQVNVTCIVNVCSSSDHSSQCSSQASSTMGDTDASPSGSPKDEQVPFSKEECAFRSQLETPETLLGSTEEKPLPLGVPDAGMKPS

T6: hTNFRII (Sinobioologicals Cat nr10414-H08H) (human, UniProt P20333 23-257)
T6 construct: bought; also called immobilized TNFR2
T6 sequence (looked up): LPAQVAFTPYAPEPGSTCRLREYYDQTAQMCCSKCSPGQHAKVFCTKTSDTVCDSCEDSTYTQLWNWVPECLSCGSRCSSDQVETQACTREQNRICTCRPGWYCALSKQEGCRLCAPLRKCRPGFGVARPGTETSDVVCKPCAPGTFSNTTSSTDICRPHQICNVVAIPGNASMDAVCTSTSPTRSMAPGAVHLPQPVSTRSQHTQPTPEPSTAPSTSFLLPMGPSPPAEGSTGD

T7: recombinant human TNFR2-Fc protein (Sino Biological) (human, UniProt P20333 23-257, limits assumed)
T7 construct: bought; also called human TNFR2 protein; not shown: Fc part of the bought fusion protein; not described
T7 sequence (looked up): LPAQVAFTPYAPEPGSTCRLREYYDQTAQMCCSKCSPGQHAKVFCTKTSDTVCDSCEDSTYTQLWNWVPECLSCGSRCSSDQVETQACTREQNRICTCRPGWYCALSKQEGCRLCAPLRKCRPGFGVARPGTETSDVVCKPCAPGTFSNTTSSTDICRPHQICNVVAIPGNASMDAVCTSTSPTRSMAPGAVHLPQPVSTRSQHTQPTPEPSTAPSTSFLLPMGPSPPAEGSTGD


Assays:
[1] = target: T1, wild type, full length murine TNFR2 (on …); assay: FACS, activated mouse CD4+ T cells
[2] = target: T2, recombinant mouse TNFR2-Fc protein …; assay: ELISA, coated TNFR2-Fc
Protocol: (§1) 96-well plates (Lumitrac 600 LIA plate, Greiner) were coated overnight at 4° C. with recombinant human or mouse TNFR2-Fc protein (Sino Biological) at 1 pmol/well. After washing, titrated doses of anti-TNFR2 mAbs from 20 μg/ml to 0.1 ng/ml (133 nM to 1 pM) were allowed to bind for 1 hour. Plates were then washed again, and bound antibodies were detected with an anti-human-F(ab)-HRP secondary antibody (Jackson ImmunoResearch) diluted in 50 ng/ml. Super Signal ELISA Pico (Thermo Scientific) was used as substrate and the plates were analyzed using Tecan Ultra Microplate reader.

[3] = target: T3, mTNFRII (Sinobioologicals Cat No. 50128 …); assay: blocking ELISA, coated mTNFRII, competitor mTNF-α 2 nM
Protocol: (§2) 96-well plates were coated with hTNFRII (Sinobioologicals Cat nr10414-H08H) or mTNFRII (Sinobioologicals Cat No. 50128 M08H) at 2.5 pmol/well in ELISA coating buffer (0.1 M sodium carbonate pH 9.5) and incubated overnight at 4° C. After washing in ELISA wash buffer (PBS with 0.05% Tween20), the plates were incubated under slow agitation for 1 h in room temperature with n-CoDeR® mAbs at 10 μg/ml (one-dose ELISA) or 33 nM and subsequent 1:2 dilutions (titration ELISA) in block buffer containing 0.45% fish gelatin. […] Thereafter, plates were washed. For the human ELISAs, Streptavidin-HRP (Jackson Cat No. 016-030-084) diluted 1:2000 in block buffer were added and again incubated for 1 h at room temperature followed by washes first in ELISA buffer and then in Tris buffer (pH 9.8). The substrate (Super Signal ELISA Pico from Thermo Scientific Cat. No. 37069) were thereafter diluted according to the manufacturers instruction, added to the wells and incubated in darkness for 10 min before reading in a Tecan Ultra. […] After washing, anti-Rabbit-HRP diluted 1:10 000 in block buffer was added and again incubated for 1 h at room temperature. Substrate adding and reading were performed as above.

[4] = target: T4, wild type, full length human TNFR2 (on …); assay: FACS, activated CD4+ T cells
Protocol: The ability and affinity of TNFR2 n-CoDeR® antibodies to bind TNFR2 expressed on cells were obtained using in vitro activated CD4⁺ T cells. Human CD4⁺ T cells were stimulated with 50 ng/ml rhIL-2 (R&D systems) and Dynabeads® T-Activator CD3/CD28 for T-Cell Expansion and Activation (Gibco) 2-3 days at 37 degrees. […] Cells were then incubated with an APC conjugated a-human IgG secondary ab (Jackson) followed by analysis by flow cytometry (FACSVerse, BD).

[5] = target: T5, Cynomolgus TNFR2 (on cynomolgus CD4+ T …); assay: FACS, stimulated cynomolgus CD4+ T cells, % over isotype
Protocol: To validate the cross-reactivity of TNFR2 antibodies to Cynomolgus, Cynomolgus CD4⁺ T cells were stimulated 2 days with 50 ng/ml PMA (Sigma) and 100 ng/ml lonomycin (Sigma). Cells were incubated with TNFR2 specific n-CoDeR® antibodies at 3 different concentrations (0.1, 1 and 10 μg/ml) and then incubated with an APC conjugated secondary a-human IgG reagent (Jackson).

[6] = target: T6, hTNFRII (Sinobioologicals Cat …); assay: blocking ELISA, coated hTNFRII, competitor hTNF-α-bio 5 nM
Protocol: as §2

[7] = target: T7, recombinant human TNFR2-Fc protein …; assay: ELISA, coated TNFR2-Fc
Protocol: as §1

Binder	EC50 [1]	EC50 [2]	EC50 [3]	EC50 [4]	binding result [5]	EC50 [6]	EC50 [7]
003-F10 (antibody, V domains shown, also called 3-F10 (mouse)) VH: EVQLLESGGGLVQPGGSLRLSCAASGFTFSDAWMTWVRQAPGKGLEWVSDLSDSGGSTYYADSVKGRFTISRDNSKNTLYLQMNSLRAEDTAVYYCGRLAAGGPVDYWGQGTLVTVSS VL: QSVLTQPPSASGTPGQRVTISCTGSSSNIGAGYDVHWYQQLPGTAPKLLIYSNNQRPSGVPDRFSGSKSGTSASLAISGLRSEDEADYYCSVWDDSLNSWVFGGGTKLTVLG	0.072 nM	0.97 nM	1.9 nM	–	–	–	–
001-G04 (antibody, V domains shown, IgG) VH: EVQLLESGGGLVQPGGSLRLSCAASGFTFNTYSMNWVRQAPGKGLEWVSVLYSDDDTHYADSVKGRFTISRDNSKNTLYLQMNSLRAEDTAVYYCARDCGGDCHSGDDAFDIWGQGTLVTVSS VL: not shown	–	–	–	18 nM	no binding (tested: 10 µg/ml)	3.2 nM	1.7 nM
